Assay results published in patent US20160340412A1.

Target: C3
Assay: analytical ultracentrifugation; self-association (dimer)

C3
Kd: 188 µM
